This is an account of results in patent US20010039258A1, “Active agent transport systems” (Emisphere Technologies, Inc., priority 1990, published 2001).

The nature of data set [1]: DSC of rhGh, effect of ionic strength. It counts as physicochemical. Particulars: pH 7.5.
Data set [2] in a line: In vivo delivery of rhGH in rats, sublingual, intranasal, oral. As to conditions: rat, no carrier, drug dose 6 mg/kg. The procedure: Dosing compositions were prepared by mixing the modified amino acids and recombinant human growth hormone (rhGH) as listed in Table 16 below in a phosphate buffer solution at a pH of about 7-8.
Rats were administered the dosing composition by sublingual or intranasal administration. Delivery was evaluated by using an ELISA assay for rhGH from Medix Biotech, Inc. For intracolonic administration, a sample was prepared and dosed to fasted rats at 25 mg/kg of carrier in a buffered solution containing propylene glycol (0-50%) and 1 mg/kg rhGH.
rhGH ([…]) was administered by oral gavage to a rat, and delivery was evaluated according to the procedure of Example 41A.

Data set [3] in a line: DSC of rhGh, effect of GuHCl. It counts as physicochemical. As to conditions: pH 7.5. The procedure:
(§1) Scanning calorimetry was performed using 5 mg 0.83 mM porcine insulin (MW 6,000) per mL in 50 mM phosphate buffer, pH 7.5. All thermograms were performed on a Microcal MC-2 scanning calorimeter equipped with the DA2 data acquisition system operated in the upscale mode at 1° C./min (up to 90° C.), and data points were collected at 20 second intervals. All scans were initiated at least 20 degrees below the observed transitions for the active agent. All thermograms were corrected for baseline subtraction and normalized for the concentration of macromolecule. According to the methods of the Johns Hopkins Biocalorimetry Center, See, for example, Ramsay et al. Biochemistry (1990) 29:8677-8693; Schon et al. Biochemistry (1989) 28:5019-5024 (1990) 29: 781-788.
An initial scan of rhGh was performed at 10 mg/mL in the absence of GuHCl (0.33 mM assuming 20,000 molecular weight). Subsequently, the concentration of rhGh was lowered to 5 mg/mL (0.17 mM) in 50 mM phosphate buffer, pH 7.5 containing varying concentrations of GuHCl. Each subsequent thermogram was corrected by background subtraction of a 0.5 M guanidine-phosphate buffer solution. The thermograms were corrected by subtraction of a 0.5M NaCl-phosphate buffer blank. Scans were performed according to the procedure of Example 9.

The nature of data set [4]: DSC of rhGh, effect of pH. It counts as physicochemical. The procedure:
as §1
5 mg/mL rhGh were dissolved in buffer (0.17 mM in 50 mM phosphate buffer, assuming a molecular weight of 20,000). The pH of the solution was adjusted to the desired value, and all curves were corrected by baseline subtraction.
The effect of pH on structure was assessed by DSC according to the procedure of Example 9 where individual solutions were prepared in phosphate buffer ranging in pH value from 2.0 to 6.0.

Data set [5] can be described thus: DSC of rhGh, effect of pH. Particulars: pH 7.5 (10 mg/mL). It counts as physicochemical.
Data set [6] in a line: In vivo rhGH in rats, subcutaneous, with delivery agents. Also on record: species or system Sprague-Dawley rats. As to conditions: rat; no delivery agent (Example 43A). The procedure:
The delivery agents were reconstituted with distilled water and adjusted to pH 7.2-8.0 with either aqueous hydrochloric acid or aqueous sodium hydroxide. A stock solution of rhGH was prepared by mixing rhGH, D-mannitol and glycine and dissolving this mixture in 2% glycerol/water. The stock solution was then added to the delivery agent solution. Several delivery agent to active agent ratios were studied.
Male Sprague-Dawley rats weighing 200-250 g were fasted for 24 hours and administered ketamine (44 mg/kg) and chlorpromazine (1.5 mg/kg) 15 minutes prior to dosing. The rats were administered one of the dosing solutions described above by subcutaneous injection, intranasal instillation, or sublingual instillation. Blood samples were collected serially from the tail artery for serum calcium concentration determination or serum rhGH concentrations. The dose of rhGH administered in these experiments was 0.1 mg/kg.
Serum rhGH concentrations were quantified by an rhGH enzyme immunoassay test kit.
rhGH (1 mg/kg) was administered by oral gavage to a rat, and delivery was evaluated according to the procedure of Example 43.

The subject of the next data set is serum calcium. The data set can be described thus: In vivo salmon calcitonin in rats, subcutaneous, with delivery agents. Also on record: species or system Sprague-Dawley rats. Particulars: sCT 0.2 μg/kg, no delivery agent (Example 55A). The procedure: The delivery agents were reconstituted with distilled water and adjusted to pH 7.2-8.0 with either aqueous hydrochloric acid or aqueous sodium hydroxide. A stock solution of sCT was prepared by dissolving sCT in citric acid (0.085N). The stock solution was then added to the delivery agent solution. Several different delivery agent to active agent ratios were studied.
Male Sprague-Dawley rats weighing 200-250 g were fasted for 24 hours and administered ketamine (44 mg/kg) and chlorpromazine (1.5 mg/kg) 15 minutes prior to dosing. The rats were administered one of the dosing solutions described above by subcutaneous injection. Blood samples were collected serially from the tail artery for serum calcium concentration.
Serum calcium concentrations were quantified by the o-cresolphthalein complexone method (Sigma) using a UV/VIS spectrophotometer (Perkin Elmer).
Salmon calcitonin was administered by oral gavage to rats, and delivery was evaluated according to the Procedure of Example 55.

Bridge positions count the residues as written; N and C are the ends. Ends that are not written are not given here.

As to rhGh: recombinant human growth hormone, the “Tm (Cp, max)” value in data set [1] (0.0 M NaCl) is 75.2 °C; in data set [1] (0.5 M NaCl) it was 75.8 °C; in data set [1] (10.0 M NaCl), 76.5 °C; in data set [4] (pH 2.0) it was “no transition observed”; in data set [4] (pH 3.0), “no transition observed”; in data set [4] (pH 3.5), “no transition observed”. Moreover, the “Tm (Cp, max)” value is “≈73.0 °C” in data set [4] (pH 4.0), 75.0 °C in data set [4] (pH 5.0) and 75.2 °C in data set [4] (pH 6.0). Moreover, the “ΔH°” value is 191.0 kcal/mol in data set [1] (0.0 M NaCl); 89.7 kcal/mol in data set [1] (0.5 M NaCl); 50.5 kcal/mol in data set [1] (1.0 M NaCl); 48 kcal/mol in data set [3] (0.5 M GuHCl); 109 kcal/mol in data set [3] (1.0 M GuHCl); 12 kcal/mol in data set [3] (1.5 M GuHCl). The “ΔH°” value in data set [3] (2.0 M GuHCl) is on record as 58 kcal/mol; in data set [3] (2.5 M GuHCl), 99 kcal/mol; in data set [3] (no GuHCl, rhGh 10 mg/mL) it was 632 kcal/mol; in data set [4] (pH 2.0), “no transition observed”; in data set [4] (pH 3.0), “no transition observed”; in data set [4] (pH 3.5), “no transition observed”. For the same substance, the “ΔH°” value in data set [4] (pH 4.0) was “broad transition”; in data set [4] (pH 5.0), 161 kcal/mol; in data set [4] (pH 6.0), 191 kcal/mol. Further, in data set [2], the “Mean Peak Serum Levels of rhGH” value is <10 ± 10 ng/mL. Further, the “DOMAIN A Tm (Cp, max)” value in data set [3] (0.5 M GuHCl) amounted to 71.5 °C; in data set [3] (1.0 M GuHCl), 70.9 °C; in data set [3] (1.5 M GuHCl), 69.7 °C; in data set [3] (2.0 M GuHCl) it was 70.0 °C; in data set [3] (2.5 M GuHCl), 70.7 °C; in data set [3] (no GuHCl, rhGh 10 mg/mL), 72.6 °C. In addition, the “DOMAIN B Tm (Cp, max)” value in data set [3] (0.5 M GuHCl) was “not defined,”; in data set [3] (1.0 M GuHCl), “absent”; in data set [3] (1.5 M GuHCl) it was “absent”; in data set [3] (2.0 M GuHCl), “absent”; in data set [3] (2.5 M GuHCl), “absent”; in data set [3] (no GuHCl, rhGh 10 mg/mL), 74.3 °C. Further, the “Tm (Cp, max), transition a)” value in data set [5] was “a) 73 °C”. Further, in data set [5], the “Tm (Cp, max), transition b)” value was “b) 75 °C”. Also, the “ΔH°, (a) + (b)” value in data set [5] is on record as “(a) + (b) = 632 kcal/mol”. Also, the “Peak Serum [rhGH]” value in data set [6] came to 4 ± 2 ng/mL.

For the substance “sCT: Salmon Calcitonin (CSNLSTCVLGKLSQELHKLQTYPRTNTGSGTP-NH2; disulfide 1-7; ends not checked)”, the “Percent Decrease in Serum Calcium” value in the data set on serum calcium worked out at 17 ± 2%.
